In the supplement of paper PMC9170038:

Test system: MS2 coat protein
Test: apparent KD of MS2 coat protein; designed switch direction (-1 OFF switch, 1 ON switch): -1; higher = weaker reporter binding
How it was run: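 Normalised cluster fluorescence was curve-fitted, and each design's median over clusters is its apparent KD. Before this, SNAP-549-labelled MS2 coat protein was titrated from 0.7 or 1.5 nM, doubling to 3 µM, over RNA switches transcribed on Illumina chips by stalled E. coli RNA polymerase. Titrations had no input, 200 uM small-molecule ligand, or an oligonucleotide input, and steps lasted 0.8–1.5 h (lowest) to 10–20 min (highest).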

[1] = Eterna round: R95, input ligand: microRNA oligo, concentration not stated
[2] = input ligand: microRNA oligo, concentration not stated
[3] = Eterna round: R95, input ligand: FMN 200 uM
[4] = Eterna round: R95, input ligand: none

In the case of “GCUCCUCCUGUUAGGAUAUGCUUCGGGCUUCCGCAGCAGAAGGAACAUGAGGAUCACCCAUGUCAAAUAAAAUC [Brourd's mod of Ex.4 - Mod Inxebexe (Scored 85 R3.2)] (Eterna round: R97, puzzle: Brourd's mod of Exclusion 4)”, the “apparent KD of MS2 coat protein” value (input ligand: FMN 200 uM) is reported as 223 nM and the “apparent KD of MS2 coat protein” value (input ligand: none) is reported as 76.2 nM.

For “UGAGUAGAUCCGAAGGGAGACAUGAGGAUCACCCAUGUAUUAAGUUUUUAUGCUCGUCGCCUACGUAACCGUAGGAC [Eternabot (Original) Solution 2] (Eterna round: R97, puzzle: Sensor, turn-off variant 1)”, the “apparent KD of MS2 coat protein” value (input ligand: FMN 200 uM) was 344 nM and the “apparent KD of MS2 coat protein” value (input ligand: none) was 360 nM.

For “AAUAACAAGUUGAUCCUACACAUGAGGAUCACCCAUGUGCUCGUCUUGUAAAGUACUAUCACGAAAGUGAUAGUACA (Eterna round: R97, puzzle: Sensor, turn-off variant 1)”, the “apparent KD of MS2 coat protein” value (input ligand: FMN 200 uM) was 50.2 nM and the “apparent KD of MS2 coat protein” value (input ligand: none) was 66 nM.

In the case of “AAUCCACAUGAGGAUCACCCAUGUCAGGAUAUCGCGCGCGCGUUUUCGGUCUUUCGCGCGAGAAGGGACGACUG (puzzle: Exclusion 1)”, the “apparent KD of MS2 coat protein” value [1] is reported as 14.1 nM.

In the case of “GCGCAAACGCCAAAAGGCGAAACAACAUGAGGAUCACCCAUGUAGGAUAUCGAUUGCUUUGCAGUCGAGAAGGACAUGAUGCGC [JL ENG3 3.80 Mod 2] (Eterna round: R96, puzzle: Exclusion NG 3)”, the “apparent KD of MS2 coat protein” value (input ligand: FMN 200 uM) is reported as 43.9 nM, the “apparent KD of MS2 coat protein” value [2] is reported as 18.5 nM and the “apparent KD of MS2 coat protein” value (input ligand: none) is reported as 20.8 nM.

In the case of “CAGUACUGCAGGCUUUGGGACAUGAGGAUCACCCAUGUUCGUCUUAUUGAUCUAGGUACGCUGACGUACCUAGAUCU [JL-sv1-2.14 Brourd mod] (puzzle: Sensor v3, turn-off variant 1)”, the “apparent KD of MS2 coat protein” value [3] is reported as 18.8 nM, the “apparent KD of MS2 coat protein” value [1] is reported as 20 nM and the “apparent KD of MS2 coat protein” value [4] is reported as 17.6 nM.

“CUCCGGCGUGUAGGAUAUGGAUCCGAUUAGGAUCCAGAAGGACAUGAGGAUCACCCAUGUACAUGUAAACAGUCGUCACCGGGC [salish99_ExNG1_r04_206] (Eterna round: R96, puzzle: Exclusion NG 1)” was tested, and the “apparent KD of MS2 coat protein” value (input ligand: FMN 200 uM) was 75.9 nM, the “apparent KD of MS2 coat protein” value [2] was 14 nM and the “apparent KD of MS2 coat protein” value (input ligand: none) was 18.1 nM.

With “UAAGUUUUGGUAGGAUAUACUUUAAAUUUCUCUAUCCAUACAUGAGGAUCACCCAUGUUUACAUUGUAGAAGGACCACUAUGUU [JR_ExcNG2_Sub056] (Eterna round: R96, puzzle: Exclusion NG 2)” the “apparent KD of MS2 coat protein” value [2] was 18.7 nM.

In the case of “UGUUGUCGCGCAGGAUAUGUAUGAGGAUCACCCAUUAAUAAAUUUUAACCACGAGGAUCACCCGUGUAGAAGGGCGCGACAACA [pwkr exNG2 2xF5 1xFMN.17] (Eterna round: R96, puzzle: Exclusion NG 2)”, the “apparent KD of MS2 coat protein” value (input ligand: FMN 200 uM) is reported as 36.6 nM, the “apparent KD of MS2 coat protein” value [2] is reported as 19.7 nM and the “apparent KD of MS2 coat protein” value (input ligand: none) is reported as 33.1 nM.

In the case of “CCGCUGCAAGGAUAUACUUGCGGUGGUGCUCGAGAUCUUUUACUUGAGGAUCACCCAAGUAGAAGGUGCAAAAC [jl-ex2.4.53 ViennaUCT mod] (Eterna round: R97, puzzle: Exclusion 2)”, the “apparent KD of MS2 coat protein” value (input ligand: FMN 200 uM) is reported as 26.2 nM and the “apparent KD of MS2 coat protein” value (input ligand: none) is reported as 17.9 nM.

For “CCCUCGGGAGGAUAUGGGUGUUUUUACAUGAGGAUCACCCAUGUAGAGUAAUAUGUGGGUCCAGAAGGCCCAAGGG [-26, -24.7 kcal, 25% A] (Eterna round: R97, puzzle: Exclusion 5)”, the “apparent KD of MS2 coat protein” value (input ligand: FMN 200 uM) was 86.9 nM and the “apparent KD of MS2 coat protein” value (input ligand: none) was 210 nM.

For “AAACUGUGAGGAUAUGGUGAGUAGUGCCUGAGCGCUGCUCACCAGAAGGCACAUGAGGAUCACCCAUGUAUAAC [Mat - Exclusion 4 - Mod of JL - D5] (puzzle: Exclusion 4)”, the “apparent KD of MS2 coat protein” value [1] was 22.4 nM.

“CAUAGUAAUUAGGAUAUCUGCCGGCUGAACCGAGGAGAAGGGAUUACAUGAGGAUCACCCAUGUGGUCCUAAGA [Relegebe] (puzzle: Exclusion 6)” was tested, and the “apparent KD of MS2 coat protein” value [1] was 14.5 nM.

“AAAUUAGCAAGUAGGUCCGACAUGAGGAUCACCCAUGUAAUCUGAAAUUACGCUGCAUGAAAGUGCGCUCGUCUUAG [Sensor-V1 #10] (Eterna round: R97, puzzle: Sensor, turn-off variant 1)” was tested, and the “apparent KD of MS2 coat protein” value (input ligand: FMN 200 uM) was 111 nM and the “apparent KD of MS2 coat protein” value (input ligand: none) was 168 nM.

For “ACAUGAGGAUCACCCAUGUGCACGUAAUGGCUCAUGUAGAGUGAGGAUAUGCGUGGCGAACGAGCGCAGAAGGCACAAGACUGG [Deportation 17 - Jieux - Exclusion NG 3] (Eterna round: R96, puzzle: Exclusion NG 3)”, the “apparent KD of MS2 coat protein” value (input ligand: FMN 200 uM) was 106 nM, the “apparent KD of MS2 coat protein” value [2] was 56.4 nM and the “apparent KD of MS2 coat protein” value (input ligand: none) was 72.6 nM.

“UUGAAGUCGUCAGGAUAUAGUUUUAAUGUCAUGCGUAUGUUCUUACAUGAGGAUCACCCAUGUCGCUAGAAGGGACUAAAGAUU [JR_ExcNG2_Sub010] (Eterna round: R96, puzzle: Exclusion NG 2)” was tested, and the “apparent KD of MS2 coat protein” value (input ligand: FMN 200 uM) was 43.9 nM, the “apparent KD of MS2 coat protein” value [2] was 33.4 nM and the “apparent KD of MS2 coat protein” value (input ligand: none) was 44.4 nM.

With “CUACCCUCAGGAUAUUUUGCACUGUACAUGAGGAUCACCCAUGUGACGUCUGUUAAUCAAAGAGAAGGGAGAGGUG [Eternabot (L1) Solution 27] (Eterna round: R97, puzzle: Exclusion 5)” the “apparent KD of MS2 coat protein” value (input ligand: FMN 200 uM) was 19.7 nM and the “apparent KD of MS2 coat protein” value (input ligand: none) was 25.1 nM.

“AUAUUACGAGGAUAUCGUUUUUAUCACAUGAGGAUCACCCAUGUAAUUUAUGUUUCGUUUCGAGAAGGCGUAAGUU [JR_E5_Sub068] (puzzle: Exclusion 5)” was tested, and the “apparent KD of MS2 coat protein” value [1] was 17.8 nM.

With “GGCAAAUUUGUAAGGAUAUUGAGCAGCGAAGAGCUCGAGAAGGUACAUGAGGAUCACCCAUGUUUCUCAGACGC [Eternabot (Original) Solution 49] (Eterna round: R97, puzzle: Brourd's mod of Exclusion 4)” the “apparent KD of MS2 coat protein” value (input ligand: FMN 200 uM) was 43.4 nM and the “apparent KD of MS2 coat protein” value (input ligand: none) was 17.7 nM.

With “UACAUGAGGAUCACCCAUGUUUUGUCGUGUAUGGUAUUUAUCUAGGAUAUCAAUGUAUUUAAUUAUGAGAAGGAGAAUAUUAAU [JMF's solution 45] (Eterna round: R96, puzzle: Exclusion NG 3)” the “apparent KD of MS2 coat protein” value (input ligand: FMN 200 uM) was 45.4 nM, the “apparent KD of MS2 coat protein” value [2] was 29.6 nM and the “apparent KD of MS2 coat protein” value (input ligand: none) was 44.6 nM.

“GGCAUGUAAGGAUAUGCCACUGAGUGCUUUGCGCUCAGUAAGCAGAAGGUACAUGAGGAUCACCCAUGUGAUAA [jl-ex4-4.54 ViennaUCT mod] (Eterna round: R97, puzzle: Exclusion 4)” was tested, and the “apparent KD of MS2 coat protein” value (input ligand: FMN 200 uM) was 136 nM and the “apparent KD of MS2 coat protein” value (input ligand: none) was 653 nM.

For “GAGGGACAUGAGGAUCACCCAUGUGAGGAUAUGUGAGAAGGAUUGGAGAGAAUAAGAAACAGAAGGCGCUGUAG [JR_Exclu1_Sub088] (puzzle: Exclusion 1)”, the “apparent KD of MS2 coat protein” value [3] was 107 nM, the “apparent KD of MS2 coat protein” value [1] was 88.9 nM and the “apparent KD of MS2 coat protein” value [4] was 138 nM.

For “CAGUACUGAGGAUAUACAUGAGGAUCACCCAUGUGUGAGAUACUAGUGAGGUCGAUUAGUAGAAGGCAGUACUG [Mat X3R4 m25] (Eterna round: R97, puzzle: Exclusion 3)”, the “apparent KD of MS2 coat protein” value (input ligand: FMN 200 uM) was 957 nM and the “apparent KD of MS2 coat protein” value (input ligand: none) was 26.3 nM.

In the case of “UAUGUUGUUGUGAGGAUAUACUUAGUUUGACCGUAGUAGAAGGCACAUGAGGAUCACCCAUGUAGAUGCUUGGU [JR_BME4_Sub006] (puzzle: Brourd's mod of Exclusion 4)”, the “apparent KD of MS2 coat protein” value [1] is reported as 5.53 nM.

“AGUAUAGUCCAUGGCCGCAAGCUUUUUACUUGUCUUACCACAUGAGGAUCACCCAUGUGACAUGGGCACCUUAUGAU [Sensor v3, turn-off variant 2 (MOD of Oranla v.4)] (puzzle: Sensor v3, turn-off variant 2)” was tested, and the “apparent KD of MS2 coat protein” value [3] was 20.4 nM, the “apparent KD of MS2 coat protein” value [1] was 34.3 nM and the “apparent KD of MS2 coat protein” value [4] was 19.6 nM.

In the case of “GAAAAGGUAGGAUAUACGAAAAAAAAGGGUAGAAAAAAUACACAUGAGGAUCACCCAUGUAGAAGGACCAAAAG [salish99_ex2_r3_073] (Eterna round: R96, puzzle: Exclusion 2)”, the “apparent KD of MS2 coat protein” value [2] is reported as 26.7 nM.

“GAUUGACAUGAGGAUCACCCAUGUGAGGAUAUCGGCCGGACCGUGCCGGCUUCCGUCGCGAGAAGGCGCAUAGG [Exclusion 1 V40] (puzzle: Exclusion 1)” was tested, and the “apparent KD of MS2 coat protein” value [3] was 49.5 nM, the “apparent KD of MS2 coat protein” value [1] was 32 nM and the “apparent KD of MS2 coat protein” value [4] was 37.3 nM.

In the case of “GGUGGACAUGAGGAUCACCCAUGUGAGGAUAUCGGCUAUCUUCUCGCUGUCGGUUGCUCGAGAAGGCACAUUGU [Exclusion 1 V94] (Eterna round: R96, puzzle: Exclusion 1)”, the “apparent KD of MS2 coat protein” value (input ligand: FMN 200 uM) is reported as 112 nM, the “apparent KD of MS2 coat protein” value [2] is reported as 50.1 nM and the “apparent KD of MS2 coat protein” value (input ligand: none) is reported as 64.9 nM.

With “GACAUGAGGAUCACCCAUGUAAGGGAUGAACUUCUGGGUAGCUAGGAUAUGGCUACAAAGGUGGACCAGAAGGAGCGUACCCUU [Amaqura] (Eterna round: R96, puzzle: Exclusion NG 3)” the “apparent KD of MS2 coat protein” value (input ligand: FMN 200 uM) was 10.6 nM, the “apparent KD of MS2 coat protein” value [2] was 14.3 nM and the “apparent KD of MS2 coat protein” value (input ligand: none) was 28.6 nM.

In the case of “GGAAGGCGAGGAUAUACAAUAAAGAAAGAGAAAGACGUGAGACAUGAGGAUCACCCAUGUAGAAGGUGCGGAGA [AK-MS2ROC-r4-exclusion2-13] (Eterna round: R97, puzzle: Exclusion 2)”, the “apparent KD of MS2 coat protein” value (input ligand: FMN 200 uM) is reported as 37.3 nM and the “apparent KD of MS2 coat protein” value (input ligand: none) is reported as 34.3 nM.

“AUAGAGUCAGGAUAUACAGGUGGAGGAAAGCAGCAUAAGGAGUAGAAGGGACAUGAGGAUCACCCAUGUAAGUG [JR_Exclu4_Sub058] (puzzle: Exclusion 4)” was tested, and the “apparent KD of MS2 coat protein” value [3] was 47.4 nM, the “apparent KD of MS2 coat protein” value [1] was 62.3 nM and the “apparent KD of MS2 coat protein” value [4] was 60.2 nM.

For “UUUUACGAAGGAUAUACAUUUUUUUUAUUAUUUUCAUUAUUACAUGAGGAUCACCCAUGUAGAAGGUCGAUUUU [My Design] (puzzle: Exclusion 2)”, the “apparent KD of MS2 coat protein” value [1] was 27.7 nM.

For “CUUUUGUGAGGAUAUUAGUAGUAAAUAAAUAAAAUUACUUCUGAGAAGGCACAUGAGGAUCACCCAUGUUCCUC [salish99_ex4_r3_063] (puzzle: Exclusion 4)”, the “apparent KD of MS2 coat protein” value [1] was 36.9 nM.

“CUUUUGUGAGGAUAUCAGUAGUAAUACAAUAGUAUUACUACUGAGAAGGCACAUGAGGAUCACCCAUGUUCUUC [Ex4 344 Omei mod 2] (puzzle: Exclusion 4)” was tested, and the “apparent KD of MS2 coat protein” value [1] was 23.2 nM.
